Test results from article PMC2701922.

Columns and labels:
purified protein [1] = substrate: NC(=O)c1ccc[n+]([C@@H]2O[C@H](COP(=O)(O)OP(=O)(O)OC[C@H]3O[C@@H](n4cnc5c(N)ncnc54)[C@H](O)[C@@H]3O)[C@@H](O)[C@H]2O)c1; assay: purified protein; assay type: biochemical, Thermotoga maritima; conditions: 50-1000 μM NAD+, with 6-phosphogluconate, 80°C, varied: cofactor
purified protein [2] = substrate: NC(=O)c1ccc[n+]([C@@H]2O[C@H](COP(=O)(O)OP(=O)(O)OC[C@H]3O[C@@H](n4cnc5c(N)ncnc54)[C@H](OP(=O)(O)O)[C@@H]3O)[C@@H](O)[C@H]2O)c1; assay: purified protein; assay type: biochemical, Thermotoga maritima; conditions: 2 mM 6-phosphogluconate, 50 mM Hepes pH 7.5, 5 mM Mg2+, 0.5 mM Mn2+, 80°C, varied: cofactor

B1: T. maritima 6PGDH (Thermotoga maritima MSB8) (protein)
chain: MKSHIGLIGLAVMGQNLALNIARKGYKVSVYNRTAQRTEEFVKNRVTNEEIEPHYDIESFVKSLERPRKIILMVKAGKPVDDTISQLLPHLEPGDLIIDGGNSHYMDTERRFKELSEKGILFLGMGVSGGEYGALHGPSLMPGGSREAYNLVEEILLEIAAKTEDGPCCTYVGERSAGHFVKMVHNGIEYAIMQAIAEVYHIMRDVLSLSSEEMSSIFEEWNRGELSSFLVEITYKILRKKDEETGKPMVDVILDKAEQKGTGKWTSQAALDLGIPTPSINLAVVERVISHFKDIRTRLSKLYNKRRSATQGSEEFLRDLRNSLFFAMFMAFSQGMWLIAEASKEFGYGVSLSEVLRIWKGGCIIRAKLIDTLRRYISNENAYLLENEEVMNLLKGKIDSLKNILKASIENEIPVPVLSSSYNYFMSLTEERLPANLIQAQRDFFGAHTFERVDREGVFHINWEEGEIG
notes: full length, expressed in E. coli as CBM-intein-6PGDH fusion, tag removed by intein self-cleavage; 53 kDa
Question: For B1, which Km (purified protein [1]) is on record?
Answer: 380 µM

Question: What about the Km (purified protein [2]) of the same protein?
Answer: 10 µM
